Here are results for two molecules from paper PMC7336453, “Inhibition of multiple defense responsive pathways by CaWRKY70 transcription factor promotes susceptibility in chickpea under Fusarium oxysporum stress condition”.

The target of data set [1] is T1, His6-CaWRKY40 (Cicer arietinum, UniProt A0A1S2YMJ3 1-315).
T1 sequence: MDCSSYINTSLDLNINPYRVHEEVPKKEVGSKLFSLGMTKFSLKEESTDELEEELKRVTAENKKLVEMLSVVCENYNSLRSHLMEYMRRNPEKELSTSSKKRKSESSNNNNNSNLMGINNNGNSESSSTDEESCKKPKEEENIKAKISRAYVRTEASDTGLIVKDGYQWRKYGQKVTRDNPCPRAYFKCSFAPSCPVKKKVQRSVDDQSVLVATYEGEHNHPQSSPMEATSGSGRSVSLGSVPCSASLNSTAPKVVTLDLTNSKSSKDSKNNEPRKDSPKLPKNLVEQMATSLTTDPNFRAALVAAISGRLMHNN
Kind of data set: EMSA; 200 ng protein; competed by 50 molar excess cold probe; 20 mM HEPES pH 7.5, 100 mM KCl, 0.2 mM EDTA, 1 mM DTT, 2 mM MgCl2, 1 ug poly dI-dC; 10 ng probe, 100-200 ng protein; 30 min room temperature; 5% PAGE 0.5x TBE at 4 C. As to conditions: protein: recombinant; tags: 6xHis (pET28a); label: labelled (32P). For orientation: Mobility shift assays separate free from complexed probe on a gel.

The target in data set [2] is T1, His6-CaWRKY40. The data set can be described thus: EMSA; 200 ng protein; competed by 20 molar excess cold probe; 20 mM HEPES pH 7.5, 100 mM KCl, 0.2 mM EDTA, 1 mM DTT, 2 mM MgCl2, 1 ug poly dI-dC; 10 ng probe, 100-200 ng protein; 30 min room temperature; 5% PAGE 0.5x TBE at 4 C. As to conditions: protein: recombinant; tags: 6xHis (pET28a); label: labelled (32P).

B1: pCaMPK9 W-box 2 (dsDNA)
DNA 1: TTAAAATTATTTGTCATCTAAAAGAATCA
DNA 2: TGATTCTTTTAGATGACAAATAATTTTAA
Turning to B1, the binding result with His6-CaWRKY40 [1] was “binds”.

B2: pCaMPK9 W-box 1 (dsDNA)
DNA 1: ATTGGTTCAGTTTTGTAGTCAACAAAATCT
DNA 2: AGATTTTGTTGACTACAAAACTGAACCAAT
Take B2: the binding result with His6-CaWRKY40 [2] is recorded as “binds”.
